According to patent US20080112926A1 (PROTAFFIN BIOTECHNOLOGIE, published 2008):
Positions count from the first letter of the chain named.

Biological target: the molecule itself
Test: fluorescence anisotropy with bis-ANS in PBS, self-association (dimerisation), no GAG
Description: By recording the concentration dependent fluorescence anisotropy of the chemokine resulting from the extrinsic chromophore bisANS it was aimed to find out the dimerisation constant of the mutants. Measurements were performed in PBS starting with high concentrations (up to 4 μM protein) followed by stepwise dilution. For each data point, the anisotropy signal (r) recorded at 507 nm was averaged over 60 sec.
IL-8 oligomerisation has been reported to relevantly influence the proteins GAG binding properties. Set at monomeric concentration, IL-8 bound size defined oligosaccharides 1000-fold tighter than at dimeric concentration. Therefore, the oligomerisation properties of IL-8 mutants were investigated by fluorescence anisotropy. Since the IL-8 intrinsic fluorophore (Trp57) was not sensitive enough for all of the mutants, the extrinsic fluorophore bis-ANS was used for these measurements. […] The mutant with the highest koligo(koligo=460 nM), which therefore dimerised worst, was Δ6 F17RF21R E70RN71K. […] Also the impact of heparan sulphate addition was observed.

B1: IL-8 mutant Δ6 F17RF21R E70RN71K (ligand)
chain: CQCIKTYSKPRHPKRIKELRVIESGPHCANTEIIVKLSDGRELCLDPKENWVQRVVEKFLKRARKS
notes: Δ6 means the first 6 N-terminal amino acids are deleted
koligo (oligomerisation constant): 460 nM

B2: IL-8 mutant Δ6 F17RF21R E70K (ligand)
chain: B1 chain with R64K, K65N
notes: as for B1
koligo (oligomerisation constant): 147 nM
